For 8 molecules, binding result and Kd results are on record in PMC3192862 (Molecular Biology of the Cell, 2011).

The term Kd denotes a measure of binding affinity in units of concentration. Higher therefore signals a looser complex.

T1: fission yeast profilin (fission yeast, UniProt P39825 1-127)
T1 sequence (looked up): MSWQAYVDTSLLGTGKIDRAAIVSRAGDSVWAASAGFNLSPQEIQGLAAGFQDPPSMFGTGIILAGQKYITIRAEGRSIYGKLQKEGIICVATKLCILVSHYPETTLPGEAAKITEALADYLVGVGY

B1: Cdc12(FH2), wild type (domain or fragment, S. pombe, UniProt Q10059 973-1390, looked up)
chain: KDDLHKTTGLTRRPTRRLKQMHWEKLNSGLEFTFWTGPSDEANKILETLHTSGVLDELDESFAMKEAKTLVKKTCARTDYMSSELQKLFGIHFHKLSHKNPNEIIRMILHCDDSMNECVEFLSSDKVLNQPKLKADLEPYRIDWANGGDLVNSEKDASELSRWDYLYVRLIVDLGGYWNQRMNALKVKNIIETNYENLVRQTKLIGRAALELRDSKVFKGLLYLILYLGNYMNDYVRQAKGFAIGSLQRLPLIKNANNTKSLLHILDITIRKHFPQFDNFSPELSTVTEAAKLNIEAIEQECSELIRGCQNLQIDCDSGALSDPTVFHPDDKILSVILPWLMEGTKKMDFLKEHLRTMNTTLNNAMRYFGEQPNDPNSKNLFFKRVDSFIIDYSKARSDNLKSEEEEASQHRRLNLVN
B2: Cdc12(FH2) I1063A (domain or fragment, S. pombe, UniProt Q10059 973-1390, looked up)
chain: KDDLHKTTGLTRRPTRRLKQMHWEKLNSGLEFTFWTGPSDEANKILETLHTSGVLDELDESFAMKEAKTLVKKTCARTDYMSSELQKLFGAHFHKLSHKNPNEIIRMILHCDDSMNECVEFLSSDKVLNQPKLKADLEPYRIDWANGGDLVNSEKDASELSRWDYLYVRLIVDLGGYWNQRMNALKVKNIIETNYENLVRQTKLIGRAALELRDSKVFKGLLYLILYLGNYMNDYVRQAKGFAIGSLQRLPLIKNANNTKSLLHILDITIRKHFPQFDNFSPELSTVTEAAKLNIEAIEQECSELIRGCQNLQIDCDSGALSDPTVFHPDDKILSVILPWLMEGTKKMDFLKEHLRTMNTTLNNAMRYFGEQPNDPNSKNLFFKRVDSFIIDYSKARSDNLKSEEEEASQHRRLNLVN
B3: Cdc12(FH2) K991A (domain or fragment, S. pombe, UniProt Q10059 973-1390, looked up)
chain: KDDLHKTTGLTRRPTRRLAQMHWEKLNSGLEFTFWTGPSDEANKILETLHTSGVLDELDESFAMKEAKTLVKKTCARTDYMSSELQKLFGIHFHKLSHKNPNEIIRMILHCDDSMNECVEFLSSDKVLNQPKLKADLEPYRIDWANGGDLVNSEKDASELSRWDYLYVRLIVDLGGYWNQRMNALKVKNIIETNYENLVRQTKLIGRAALELRDSKVFKGLLYLILYLGNYMNDYVRQAKGFAIGSLQRLPLIKNANNTKSLLHILDITIRKHFPQFDNFSPELSTVTEAAKLNIEAIEQECSELIRGCQNLQIDCDSGALSDPTVFHPDDKILSVILPWLMEGTKKMDFLKEHLRTMNTTLNNAMRYFGEQPNDPNSKNLFFKRVDSFIIDYSKARSDNLKSEEEEASQHRRLNLVN
B4: Cdc12(FH2) G1201R, N1202P (domain or fragment, S. pombe, UniProt Q10059 973-1390, looked up)
chain: KDDLHKTTGLTRRPTRRLKQMHWEKLNSGLEFTFWTGPSDEANKILETLHTSGVLDELDESFAMKEAKTLVKKTCARTDYMSSELQKLFGIHFHKLSHKNPNEIIRMILHCDDSMNECVEFLSSDKVLNQPKLKADLEPYRIDWANGGDLVNSEKDASELSRWDYLYVRLIVDLGGYWNQRMNALKVKNIIETNYENLVRQTKLIGRAALELRDSKVFKGLLYLILYLRPYMNDYVRQAKGFAIGSLQRLPLIKNANNTKSLLHILDITIRKHFPQFDNFSPELSTVTEAAKLNIEAIEQECSELIRGCQNLQIDCDSGALSDPTVFHPDDKILSVILPWLMEGTKKMDFLKEHLRTMNTTLNNAMRYFGEQPNDPNSKNLFFKRVDSFIIDYSKARSDNLKSEEEEASQHRRLNLVN
B5: Cdc12(FH2) K1226A (domain or fragment, S. pombe, UniProt Q10059 973-1390, looked up)
chain: KDDLHKTTGLTRRPTRRLKQMHWEKLNSGLEFTFWTGPSDEANKILETLHTSGVLDELDESFAMKEAKTLVKKTCARTDYMSSELQKLFGIHFHKLSHKNPNEIIRMILHCDDSMNECVEFLSSDKVLNQPKLKADLEPYRIDWANGGDLVNSEKDASELSRWDYLYVRLIVDLGGYWNQRMNALKVKNIIETNYENLVRQTKLIGRAALELRDSKVFKGLLYLILYLGNYMNDYVRQAKGFAIGSLQRLPLIANANNTKSLLHILDITIRKHFPQFDNFSPELSTVTEAAKLNIEAIEQECSELIRGCQNLQIDCDSGALSDPTVFHPDDKILSVILPWLMEGTKKMDFLKEHLRTMNTTLNNAMRYFGEQPNDPNSKNLFFKRVDSFIIDYSKARSDNLKSEEEEASQHRRLNLVN
B6: Fus1(FH1) (domain or fragment, S. pombe, UniProt Q10719 792-862, looked up)
chain: MRIKEVIDGNPFKAPPPAPLPPPAPPLPTAMSSLQKFEKNDSQIFRKTIIIPENISIDDIFKFCSGSESEV
B7: Cdc12(FH1) (domain or fragment, S. pombe, UniProt Q10059 882-972, looked up)
chain: NNSKITNFDIPNDATSLPTIITHPTPPPPPPLPVKTSLNTFSHPDSVNIVANDTSVAGVMPAFPPPPPPPPPLVSAAGGKFVSPAVSNNIS
B8: For3(FH1) (domain or fragment, S. pombe, UniProt O94532 718-837, looked up)
chain: SDTVEEQQKLLLKSPPPPPPAVIVPTPAPAPIPVPPPAPIMGGPPPPPPPPGVAGAGPPPPPPPPPAVSAGGSRYYAPAPQAEPEPKIDETSLTEEQKIQLEEARKQRKAADDAARAAIE

The first data set deals with the molecule itself. The experiment in a line: SEC. (Size exclusion chromatography separates by hydrodynamic size, large species first.)
As to B1, the binding result is on record as “binds”.

As for B2, the binding result is given as “binds”.

Consider B3, for which the binding result is “binds”.

Regarding B4, the binding result is given as “binds”.

As to B5, the binding result was “binds”.

The target of a further data set is T1, fission yeast profilin. As to the kind of experiment: other fluorescence titration.
B6 returned a Kd of 1300 nM.

B7: the equilibrium dissociation constant (Kd) stood at 1700 nM.

Take B8: the Kd turned out to be 6500 nM.
